Patent publication US20260315592 (published 2026)

B1: SX13-7 (CAR46) (antibody)
chain: QLVESGGGLVKPGGSLRLSCAASGFTFSDYSMNWVRQAPGKGLEWVSSISSSSSYKKYADSVKGRLTISRDNAKNSLYLQMNSLRAEDTAVYYCARGIDYFDYWGQGTLVTVSSSGGGGSGGGGSGGGGSDIQLTQSPSFLSASVGDRVTITCRASQGISSNLAWYQQKPGKDPKVLIYGASTLQSGVPSRFSGSGSGTEFTLTISSLQPEDFATYYCQQLNSYPRTFGQGTKVEIK
B2: SX13-12 (CAR49) (antibody)
chain: QLVESGGGLVKPGGSLRLSCAASGFTFSDYSMNWVRQAPGKGLNWVASISSSSHYKYYADSVKGRFTISRDNAKNSLYLQMNSLRAEDTAVYYCARGIDFFDIWGQGTMVTVSSSGGGGSGGGGSGGGGSDIQLTQSPSFLSASVGDRVTITCRASQDINSYLVWYQQKPGKAPKLLIYTASTLQSGVPSRFSGSGSGTEFTLTIRSLQPEDFATYYCQQLNSYPRTFGQGTKVEIK
B3: SX13-10 (CAR48) (antibody)
chain: QLLESGGGLVKPGGSLRLSCAASGFTFSRYNMNWVRQAPGKGLEWVSFISGSSSYVYYADSVKGRFTISKDNAKNSLYLQMNSLRAEDTAVYYCARSGYCTSTTCYNYYYYYMDVWGKGTTVTVSSSGGGGSGGGGSGGGGSEIVLMQSPGTLSLSPGERATLSCRASQSVSNSYLAWYQQKPGQAPRLLIYGASSRATGIPDRFSGSGSGTDFTLTISRLEPEDFAVFYCQQFGSSPLTFGGGTKVEIK
B4: SX13-1 (CAR42) (antibody)
chain: QLVESGGGLVKPGGSLRLSCAASGFTFSDYSMNWVRQAPGKGLEWVSSISSSSRYKYYADSMKGRFTISRDNAKNSLYLQMNSLRVEDTAVYYCTRGIDYFDYWGQGTLVTVSSSGGGGSGGGGSGGGGSDIQLTQSPSFLSASVGDRVTITCRASQDINNYLAWYQQKPGKAPKFLIHVASTLQSGVPSRFSGSGSGTEFTLTISSLQPEDSATYYCQQLNSYPRTFGQGTKVEIK

Biological target: ENPP3 (human)
Sequence (chain, as listed by the source): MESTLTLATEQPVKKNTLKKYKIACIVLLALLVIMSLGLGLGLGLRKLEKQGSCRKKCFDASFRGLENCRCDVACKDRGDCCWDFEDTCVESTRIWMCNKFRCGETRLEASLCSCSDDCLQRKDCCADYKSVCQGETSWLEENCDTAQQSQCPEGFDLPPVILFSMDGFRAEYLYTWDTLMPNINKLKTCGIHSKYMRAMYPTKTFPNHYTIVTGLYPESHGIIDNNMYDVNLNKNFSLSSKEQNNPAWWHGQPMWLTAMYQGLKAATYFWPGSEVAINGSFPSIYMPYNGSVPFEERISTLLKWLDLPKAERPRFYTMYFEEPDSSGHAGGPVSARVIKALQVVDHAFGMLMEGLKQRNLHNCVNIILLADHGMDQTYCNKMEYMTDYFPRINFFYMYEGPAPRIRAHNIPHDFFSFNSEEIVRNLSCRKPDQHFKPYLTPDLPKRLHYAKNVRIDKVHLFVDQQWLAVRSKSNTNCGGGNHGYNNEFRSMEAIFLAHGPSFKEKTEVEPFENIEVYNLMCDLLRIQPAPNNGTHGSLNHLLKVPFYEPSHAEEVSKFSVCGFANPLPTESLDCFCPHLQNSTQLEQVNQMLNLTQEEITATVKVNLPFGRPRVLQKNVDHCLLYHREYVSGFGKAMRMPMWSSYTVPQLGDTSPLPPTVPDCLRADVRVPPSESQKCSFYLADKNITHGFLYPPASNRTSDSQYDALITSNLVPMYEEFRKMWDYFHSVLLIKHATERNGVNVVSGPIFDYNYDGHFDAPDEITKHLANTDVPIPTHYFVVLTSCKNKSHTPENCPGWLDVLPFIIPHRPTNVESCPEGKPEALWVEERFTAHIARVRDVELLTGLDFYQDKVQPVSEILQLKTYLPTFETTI

Kd [nM] | Binder
4.24 | B1
23.5 | B2
113 | B3
18.9 | B4
